# Molecular target: WT HCN1 (mHCN1) (mouse (mHCN1)) (UniProt O88704)
# Test: cell-based or functional assay
# Chain of UniProt O88704 (O88704 whole entry): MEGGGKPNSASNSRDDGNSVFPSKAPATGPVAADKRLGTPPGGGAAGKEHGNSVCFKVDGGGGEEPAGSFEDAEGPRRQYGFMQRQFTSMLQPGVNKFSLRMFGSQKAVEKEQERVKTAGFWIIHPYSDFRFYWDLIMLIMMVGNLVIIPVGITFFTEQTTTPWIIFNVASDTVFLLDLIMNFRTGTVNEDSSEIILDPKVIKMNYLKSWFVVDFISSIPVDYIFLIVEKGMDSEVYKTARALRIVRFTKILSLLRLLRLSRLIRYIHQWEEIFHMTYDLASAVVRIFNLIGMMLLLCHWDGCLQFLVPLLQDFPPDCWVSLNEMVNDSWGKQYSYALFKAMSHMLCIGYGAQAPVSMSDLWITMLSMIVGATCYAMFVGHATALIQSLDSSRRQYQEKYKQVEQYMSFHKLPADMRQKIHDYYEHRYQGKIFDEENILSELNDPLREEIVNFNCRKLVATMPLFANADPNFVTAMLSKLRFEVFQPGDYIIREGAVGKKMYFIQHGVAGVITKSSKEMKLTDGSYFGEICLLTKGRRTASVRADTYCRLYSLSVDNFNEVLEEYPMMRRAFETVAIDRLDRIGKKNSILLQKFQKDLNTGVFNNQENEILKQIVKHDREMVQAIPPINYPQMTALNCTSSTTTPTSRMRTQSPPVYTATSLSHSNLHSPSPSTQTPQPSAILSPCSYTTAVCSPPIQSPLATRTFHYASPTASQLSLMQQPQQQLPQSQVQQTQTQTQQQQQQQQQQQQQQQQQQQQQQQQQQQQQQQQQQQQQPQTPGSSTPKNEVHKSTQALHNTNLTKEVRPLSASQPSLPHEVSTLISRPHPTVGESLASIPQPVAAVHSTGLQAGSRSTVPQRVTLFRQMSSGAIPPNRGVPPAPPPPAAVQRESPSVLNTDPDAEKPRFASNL
substance,measurement,value
HCN1-AAA (mHCN1 with the triple mutation GYG365-367AAA) (from UniProt O88704 1-910),"current reduction, WTHCN1:HCN1-AAA cRNA ratio 1:1 (total 25 ng), Xenopus oocytes (% current reduction)",91.7
same,"current reduction, WTHCN1:HCN1-AAA cRNA ratio 1:2 (total 25 ng), Xenopus oocytes (% current reduction)",97.9
same,"current reduction, WTHCN1:HCN1-AAA cRNA ratio 2:1 (total 25 ng), Xenopus oocytes (% current reduction)",78.7
same,"current reduction, WTHCN1:HCN1-AAA cRNA ratio 3:1 (total 25 ng), Xenopus oocytes (% current reduction)",68.3
same,"current reduction, WTHCN1:HCN1-AAA cRNA ratio 4:1 (total 25 ng), Xenopus oocytes (% current reduction)",55.2
same,"whole-cell current at -140 mV in Xenopus oocytes, co-injection of 50 nL WT HCN1 and 50 nL HCN1-AAA cRNA against WT HCN1 alone (current reduction)",85.2%

# From US20090175790A1
